Six molecules from patent US20200115430A1 (I2O THERAPEUTICS, published 2020) can be followed below.

Starred links: 1 amine or outer side, 2 acyl side, 3 side chain; linkers in the order of their positions; H or OH if unused. Positions of bridges follow the written chain, without caps; N, C: chain ends. Non-standard residues stand in square brackets, D forms with d. Groups on a side chain read outwards from the residue. Primed or numbered codes have the meaning given here. No end group written: not given here. *: point of attachment. dpeg″ = —[CO(CH2)O(CH2)2O(CH2)NH]— spacer unit, O=C(COCCOCN[*:1])[*:2]; C20 diacid = O=C(O)CCCCCCCCCCCCCCCCCCC(=O)*; C18 diacid = O=C(O)CCCCCCCCCCCCCCCCC(=O)*; γGlu = O=C(O)[C@H](CCC(=O)[*:2])N[*:1]; Palmitoyl = CCCCCCCCCCCCCCCC(=O)*

T1: human amylin 3 receptor (human, UniProt P30988 25-474; O60896 24-148)
T1 sequence (looked up) 1: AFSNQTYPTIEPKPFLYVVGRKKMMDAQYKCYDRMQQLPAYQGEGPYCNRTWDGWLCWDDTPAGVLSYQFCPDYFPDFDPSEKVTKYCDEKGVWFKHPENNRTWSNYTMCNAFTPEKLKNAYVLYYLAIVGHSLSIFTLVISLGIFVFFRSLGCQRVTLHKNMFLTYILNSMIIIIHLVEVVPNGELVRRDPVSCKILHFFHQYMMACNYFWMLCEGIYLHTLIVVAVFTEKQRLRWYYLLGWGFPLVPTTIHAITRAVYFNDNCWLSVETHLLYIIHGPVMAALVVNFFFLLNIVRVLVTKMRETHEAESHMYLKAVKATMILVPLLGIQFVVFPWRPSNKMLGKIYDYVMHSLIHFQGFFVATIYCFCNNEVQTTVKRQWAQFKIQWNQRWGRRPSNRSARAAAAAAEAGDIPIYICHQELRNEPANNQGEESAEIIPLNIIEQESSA
T1 sequence (looked up) 2: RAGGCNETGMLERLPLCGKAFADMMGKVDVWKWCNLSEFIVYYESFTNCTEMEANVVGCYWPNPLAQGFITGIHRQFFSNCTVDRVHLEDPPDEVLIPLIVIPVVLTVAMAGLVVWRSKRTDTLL

T2: human calcitonin receptor (human, UniProt P30988 25-474)
T2 sequence (looked up): T1 sequence (looked up) 1

B1: Compound A99 (peptide)
peptide: SCNTSTCATQRLANELK([dpeg″-dpeg″-γGlu-C18 diacid])KSSNNFGPILPPTKVGSETY-NH2
modifications: disulfide 2-7; N-terminus assumed
SMILES: CC[C@H](C)[C@H](NC(=O)[C@@H]1CCCN1C(=O)CNC(=O)[C@H](Cc1ccccc1)NC(=O)[C@H](CC(N)=O)NC(=O)[C@H](CC(N)=O)NC(=O)[C@H](CO)NC(=O)[C@H](CO)NC(=O)[C@H](CCCCN)NC(=O)[C@H](CCCCNC(=O)COCCOCNC(=O)COCCOCNC(=O)CC[C@H](NC(=O)CCCCCCCCCCCCCCCCC(=O)O)C(=O)O)NC(=O)[C@H](CC(C)C)NC(=O)[C@H](CCC(=O)O)NC(=O)[C@H](CC(N)=O)NC(=O)[C@H](C)NC(=O)[C@H](CC(C)C)NC(=O)[C@H](CCCNC(=N)N)NC(=O)[C@H](CCC(N)=O)NC(=O)[C@@H](NC(=O)[C@H](C)NC(=O)[C@@H]1CSSC[C@H](NC(=O)[C@@H](N)CO)C(=O)N[C@@H](CC(N)=O)C(=O)N[C@@H]([C@@H](C)O)C(=O)N[C@@H](CO)C(=O)N[C@@H]([C@@H](C)O)C(=O)N1)[C@@H](C)O)C(=O)N[C@@H](CC(C)C)C(=O)N1CCC[C@H]1C(=O)N1CCC[C@H]1C(=O)N[C@H](C(=O)N[C@@H](CCCCN)C(=O)N[C@H](C(=O)NCC(=O)N[C@@H](CO)C(=O)N[C@@H](CCC(=O)O)C(=O)N[C@H](C(=O)N[C@@H](Cc1ccc(O)cc1)C(N)=O)[C@@H](C)O)C(C)C)[C@@H](C)O
B2: Compound A115 (peptide)
peptide: K(C20 diacid)CNTSTCATQRLANELHKSSNNFGPILPPTKVGSETY-NH2
modifications: disulfide 2-7; N-terminus assumed
SMILES: CC[C@H](C)[C@H](NC(=O)[C@@H]1CCCN1C(=O)CNC(=O)[C@H](Cc1ccccc1)NC(=O)[C@H](CC(N)=O)NC(=O)[C@H](CC(N)=O)NC(=O)[C@H](CO)NC(=O)[C@H](CO)NC(=O)[C@H](CCCCN)NC(=O)[C@H](Cc1c[nH]cn1)NC(=O)[C@H](CC(C)C)NC(=O)[C@H](CCC(=O)O)NC(=O)[C@H](CC(N)=O)NC(=O)[C@H](C)NC(=O)[C@H](CC(C)C)NC(=O)[C@H](CCCNC(=N)N)NC(=O)[C@H](CCC(N)=O)NC(=O)[C@@H](NC(=O)[C@H](C)NC(=O)[C@@H]1CSSC[C@H](NC(=O)[C@@H](N)CCCCNC(=O)CCCCCCCCCCCCCCCCCCC(=O)O)C(=O)N[C@@H](CC(N)=O)C(=O)N[C@@H]([C@@H](C)O)C(=O)N[C@@H](CO)C(=O)N[C@@H]([C@@H](C)O)C(=O)N1)[C@@H](C)O)C(=O)N[C@@H](CC(C)C)C(=O)N1CCC[C@H]1C(=O)N1CCC[C@H]1C(=O)N[C@H](C(=O)N[C@@H](CCCCN)C(=O)N[C@H](C(=O)NCC(=O)N[C@@H](CO)C(=O)N[C@@H](CCC(=O)O)C(=O)N[C@H](C(=O)N[C@@H](Cc1ccc(O)cc1)C(N)=O)[C@@H](C)O)C(C)C)[C@@H](C)O
B3: Compound A119 (peptide)
peptide: K([γGlu-C20 diacid])CNTSTCATQRLANELHKSSNNFGPILPPTKVGSETY-NH2
modifications: disulfide 2-7; N-terminus assumed
SMILES: CC[C@H](C)[C@H](NC(=O)[C@@H]1CCCN1C(=O)CNC(=O)[C@H](Cc1ccccc1)NC(=O)[C@H](CC(N)=O)NC(=O)[C@H](CC(N)=O)NC(=O)[C@H](CO)NC(=O)[C@H](CO)NC(=O)[C@H](CCCCN)NC(=O)[C@H](Cc1c[nH]cn1)NC(=O)[C@H](CC(C)C)NC(=O)[C@H](CCC(=O)O)NC(=O)[C@H](CC(N)=O)NC(=O)[C@H](C)NC(=O)[C@H](CC(C)C)NC(=O)[C@H](CCCNC(=N)N)NC(=O)[C@H](CCC(N)=O)NC(=O)[C@@H](NC(=O)[C@H](C)NC(=O)[C@@H]1CSSC[C@H](NC(=O)[C@@H](N)CCCCNC(=O)CC[C@H](NC(=O)CCCCCCCCCCCCCCCCCCC(=O)O)C(=O)O)C(=O)N[C@@H](CC(N)=O)C(=O)N[C@@H]([C@@H](C)O)C(=O)N[C@@H](CO)C(=O)N[C@@H]([C@@H](C)O)C(=O)N1)[C@@H](C)O)C(=O)N[C@@H](CC(C)C)C(=O)N1CCC[C@H]1C(=O)N1CCC[C@H]1C(=O)N[C@H](C(=O)N[C@@H](CCCCN)C(=O)N[C@H](C(=O)NCC(=O)N[C@@H](CO)C(=O)N[C@@H](CCC(=O)O)C(=O)N[C@H](C(=O)N[C@@H](Cc1ccc(O)cc1)C(N)=O)[C@@H](C)O)C(C)C)[C@@H](C)O
B4: Compound A120 (peptide)
peptide: K(C18 diacid)CNTSTCATQRLANELHKSSNNFGPILPPTKVGSETY-NH2
modifications: disulfide 2-7; N-terminus assumed
SMILES: CC[C@H](C)[C@H](NC(=O)[C@@H]1CCCN1C(=O)CNC(=O)[C@H](Cc1ccccc1)NC(=O)[C@H](CC(N)=O)NC(=O)[C@H](CC(N)=O)NC(=O)[C@H](CO)NC(=O)[C@H](CO)NC(=O)[C@H](CCCCN)NC(=O)[C@H](Cc1c[nH]cn1)NC(=O)[C@H](CC(C)C)NC(=O)[C@H](CCC(=O)O)NC(=O)[C@H](CC(N)=O)NC(=O)[C@H](C)NC(=O)[C@H](CC(C)C)NC(=O)[C@H](CCCNC(=N)N)NC(=O)[C@H](CCC(N)=O)NC(=O)[C@@H](NC(=O)[C@H](C)NC(=O)[C@@H]1CSSC[C@H](NC(=O)[C@@H](N)CCCCNC(=O)CCCCCCCCCCCCCCCCC(=O)O)C(=O)N[C@@H](CC(N)=O)C(=O)N[C@@H]([C@@H](C)O)C(=O)N[C@@H](CO)C(=O)N[C@@H]([C@@H](C)O)C(=O)N1)[C@@H](C)O)C(=O)N[C@@H](CC(C)C)C(=O)N1CCC[C@H]1C(=O)N1CCC[C@H]1C(=O)N[C@H](C(=O)N[C@@H](CCCCN)C(=O)N[C@H](C(=O)NCC(=O)N[C@@H](CO)C(=O)N[C@@H](CCC(=O)O)C(=O)N[C@H](C(=O)N[C@@H](Cc1ccc(O)cc1)C(N)=O)[C@@H](C)O)C(C)C)[C@@H](C)O
B5: Compound A27 (peptide)
peptide: SCNTSTCATQRLANE[dK]([γGlu-γGlu-Palmitoyl])HKSSNNFGPILPPTKVGSETY-NH2
modifications: disulfide 2-7; N-terminus assumed
SMILES: CCCCCCCCCCCCCCCC(=O)N[C@@H](CCC(=O)N[C@@H](CCC(=O)NCCCC[C@@H](NC(=O)[C@H](CCC(=O)O)NC(=O)[C@H](CC(N)=O)NC(=O)[C@H](C)NC(=O)[C@H](CC(C)C)NC(=O)[C@H](CCCNC(=N)N)NC(=O)[C@H](CCC(N)=O)NC(=O)[C@@H](NC(=O)[C@H](C)NC(=O)[C@@H]1CSSC[C@H](NC(=O)[C@@H](N)CO)C(=O)N[C@@H](CC(N)=O)C(=O)N[C@@H]([C@@H](C)O)C(=O)N[C@@H](CO)C(=O)N[C@@H]([C@@H](C)O)C(=O)N1)[C@@H](C)O)C(=O)N[C@@H](Cc1c[nH]cn1)C(=O)N[C@@H](CCCCN)C(=O)N[C@@H](CO)C(=O)N[C@@H](CO)C(=O)N[C@@H](CC(N)=O)C(=O)N[C@@H](CC(N)=O)C(=O)N[C@@H](Cc1ccccc1)C(=O)NCC(=O)N1CCC[C@H]1C(=O)N[C@H](C(=O)N[C@@H](CC(C)C)C(=O)N1CCC[C@H]1C(=O)N1CCC[C@H]1C(=O)N[C@H](C(=O)N[C@@H](CCCCN)C(=O)N[C@H](C(=O)NCC(=O)N[C@@H](CO)C(=O)N[C@@H](CCC(=O)O)C(=O)N[C@H](C(=O)N[C@@H](Cc1ccc(O)cc1)C(N)=O)[C@@H](C)O)C(C)C)[C@@H](C)O)[C@@H](C)CC)C(=O)O)C(=O)O

The first test deals with T1, human amylin 3 receptor. Put plainly: cell-based or functional assay.
For the molecule B1, the “pEC50 (cAMP accumulation), 0% HSA” value came to 10.9 pEC50; the “pEC50 (cAMP accumulation), 0.1% HSA” value is 9.5 pEC50; the “pEC50 (cAMP accumulation), 4% HSA” value worked out at 8.6 pEC50.
Turning to K([dpeg″-dpeg″-γGlu-C18 diacid])CNTSTCATQRLANELHKSSNNFGPILPPTKVGSETY-NH2 (disulfide 2-7) [Compound A113], the “pEC50 (cAMP accumulation), 0% HSA” value was 12.3 pEC50; the “pEC50 (cAMP accumulation), 0.1% HSA” value was found to be 10.6 pEC50; the “pEC50 (cAMP accumulation), 4% HSA” value came out at 9 pEC50.
B2: the “pEC50 (cAMP accumulation), 0% HSA” value was 12.3 pEC50; the “pEC50 (cAMP accumulation), 0.1% HSA” value turned out to be 10.7 pEC50; the “pEC50 (cAMP accumulation), 4% HSA” value was 9.4 pEC50.
Consider B3, for which the “pEC50 (cAMP accumulation), 0% HSA” value worked out at 11.9 pEC50; the “pEC50 (cAMP accumulation), 0.1% HSA” value worked out at 10.2 pEC50; the “pEC50 (cAMP accumulation), 4% HSA” value was 8.5 pEC50.
For B4 the same measures were 11.4 pEC50, 9.7 pEC50 and 8.4 pEC50.
On to B5, for which the “pEC50 (cAMP accumulation), 0% HSA” value amounted to 12.8 pEC50; the “pEC50 (cAMP accumulation), 0.1% HSA” value was 11.8 pEC50; the “pEC50 (cAMP accumulation), 4% HSA” value was found to be 10.4 pEC50.

Another test concerns the target T2, human calcitonin receptor. Put plainly: cell-based or functional assay.
For the molecule B1, the “pEC50 (cAMP accumulation), 0% HSA” value stood at 10.4 pEC50; the “pEC50 (cAMP accumulation), 0.1% HSA” value amounted to 8.5 pEC50; the “pEC50 (cAMP accumulation), 4% HSA” value was found to be 7.6 pEC50.
In the case of K([dpeg″-dpeg″-γGlu-C18 diacid])CNTSTCATQRLANELHKSSNNFGPILPPTKVGSETY-NH2 (disulfide 2-7) [Compound A113], the “pEC50 (cAMP accumulation), 0% HSA” value worked out at 11.3 pEC50; the “pEC50 (cAMP accumulation), 0.1% HSA” value worked out at 9.7 pEC50; the “pEC50 (cAMP accumulation), 4% HSA” value turned out to be 8.1 pEC50.
With B2, the “pEC50 (cAMP accumulation), 0% HSA” value turned out to be 11.5 pEC50; the “pEC50 (cAMP accumulation), 0.1% HSA” value was 9.9 pEC50; the “pEC50 (cAMP accumulation), 4% HSA” value came out at 8.5 pEC50.
Regarding B3, the “pEC50 (cAMP accumulation), 0% HSA” value is 11.2 pEC50; the “pEC50 (cAMP accumulation), 0.1% HSA” value came to 9.5 pEC50; the “pEC50 (cAMP accumulation), 4% HSA” value stood at 7.9 pEC50.
In the case of B4, the “pEC50 (cAMP accumulation), 0% HSA” value is 10.3 pEC50; the “pEC50 (cAMP accumulation), 0.1% HSA” value came to 8.9 pEC50; the “pEC50 (cAMP accumulation), 4% HSA” value came to 7.4 pEC50.
B5: the “pEC50 (cAMP accumulation), 0% HSA” value is 11.9 pEC50; the “pEC50 (cAMP accumulation), 0.1% HSA” value stood at 10.6 pEC50; the “pEC50 (cAMP accumulation), 4% HSA” value amounted to 9 pEC50.
